Assay results from doi:10.1101/823146 (bioRxiv, 2019).
Each block holds one molecule with its values, some of them ahead of it.

Columns and labels:
[1] = molecular target: 6xHis-tagged RcsF (E. coli) (UniProt P69411); assay: BLI
[2] = molecular target: Untagged BamA (biolayer interferometry) (E. coli), P0A940; assay: BLI; settings: remark: other sources report otherwise
[3] = molecular target: BamABCDE holocomplex (BAM) (E. coli, UniProt P0A940;P77774;P0A903;P0AC02;P0A937); assay: native gel or EMSA
BamABCDE holocomplex (BAM), sequence (P77774 20-392, chain 2 of 4): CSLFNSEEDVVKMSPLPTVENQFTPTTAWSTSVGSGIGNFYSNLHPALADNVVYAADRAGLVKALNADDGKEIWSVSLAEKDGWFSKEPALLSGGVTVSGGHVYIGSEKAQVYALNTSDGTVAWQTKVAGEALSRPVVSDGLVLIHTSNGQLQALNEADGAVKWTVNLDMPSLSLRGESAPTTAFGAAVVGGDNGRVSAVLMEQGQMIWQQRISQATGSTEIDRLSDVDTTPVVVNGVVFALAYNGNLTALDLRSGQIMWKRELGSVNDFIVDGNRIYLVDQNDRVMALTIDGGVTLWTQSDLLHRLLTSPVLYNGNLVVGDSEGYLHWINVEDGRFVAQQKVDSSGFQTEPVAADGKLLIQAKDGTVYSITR
BamABCDE holocomplex (BAM), sequence (P0A903 25-344, chain 3 of 4): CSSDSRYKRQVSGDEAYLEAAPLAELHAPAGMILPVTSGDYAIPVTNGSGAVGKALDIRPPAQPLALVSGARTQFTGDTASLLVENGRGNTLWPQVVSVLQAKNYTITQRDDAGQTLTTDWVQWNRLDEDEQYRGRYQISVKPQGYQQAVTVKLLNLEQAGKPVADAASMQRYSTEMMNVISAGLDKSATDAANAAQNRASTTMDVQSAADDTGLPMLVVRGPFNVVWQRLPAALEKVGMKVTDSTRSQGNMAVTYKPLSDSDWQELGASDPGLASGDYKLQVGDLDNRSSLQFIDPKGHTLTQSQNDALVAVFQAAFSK
BamABCDE holocomplex (BAM), sequence (P0AC02 20-245, chain 4 of 4): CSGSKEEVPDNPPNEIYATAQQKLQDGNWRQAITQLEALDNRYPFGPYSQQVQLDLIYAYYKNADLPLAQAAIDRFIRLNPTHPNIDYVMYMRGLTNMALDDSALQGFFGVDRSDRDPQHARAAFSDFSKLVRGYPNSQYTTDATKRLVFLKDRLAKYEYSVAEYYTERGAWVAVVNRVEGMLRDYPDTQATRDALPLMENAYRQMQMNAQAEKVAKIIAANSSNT
BamABCDE holocomplex (BAM), sequence (P0A937 20-113, chain 5 of 4): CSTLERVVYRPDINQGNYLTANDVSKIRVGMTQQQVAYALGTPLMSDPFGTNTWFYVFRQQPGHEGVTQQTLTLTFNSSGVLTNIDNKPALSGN

BamABDE complex = BamABDE complex (E. coli, UniProt P0A940;P77774;P0AC02;P0A937); assay: native gel or EMSA
BamABDE complex, sequence (P77774 20-392, chain 2 of 3): as the sequence (P77774 20-392, chain 2 of 4) above
BamABDE complex, sequence (P0AC02 20-245, chain 3 of 3): as the sequence (P0AC02 20-245, chain 4 of 4) above
BamABDE complex, sequence (P0A937 20-113, chain 4 of 3): as the sequence (P0A937 20-113, chain 5 of 4) above

BamACDE complex = BamACDE complex (E. coli, UniProt P0A940;P0A903;P0AC02;P0A937); assay: native gel or EMSA
BamACDE complex, sequence (P0A903 25-344, chain 2 of 3): as the sequence (P0A903 25-344, chain 3 of 4) above
BamACDE complex, sequence (P0AC02 20-245, chain 3 of 3): as the sequence (P0AC02 20-245, chain 4 of 4) above
BamACDE complex, sequence (P0A937 20-113, chain 4 of 3): as the sequence (P0A937 20-113, chain 5 of 4) above

Kd [1]: 420 nM
Molecule: Untagged BamA (biolayer interferometry) (from UniProt P0A940 21-810) (natural protein; other documents disagree on this pair)

Kd [2]: 350 nM
B1: 6xHis-tagged RcsF, P69411 16-134 (natural protein)
chain: CSMLSRSPVEPVQSTAPQPKAEPAKPKAPRATPVRIYTNAEELVGKPFRDLGEVSGDSCQASNQDSPPSIPTARKRMQINASKMKANAVLLHSCEVTSGTPGCYRQAVCIGSALNITAK
modifications: here or on the partner: biotin (EZ-Link NHS-PEG4-biotin) where BamA was immobilised on streptavidin tips

binding result [3]: binds
binding result (BamABDE complex): binds
binding result (BamACDE complex): binds
B2: RcsF (overexpressed from pSC216) (natural protein)
chain: CSMLSRSPVEPVQSTAPQPKAEPAKPKAPRATPVRIYTNAEELVGKPFRDLGEVSGDSCQASNQDSPPSIPTARKRMQINASKMKANAVLLHSCEVTSGTPGCYRQAVCIGSALNITAK
modifications: lipid anchor (outer membrane lipoprotein)
